Here are results for one protein from patent US20230287362.

The target of the data set is T1, E. cloacae His6-CD-NTase fused at its C terminus to GFP.
T1 chain: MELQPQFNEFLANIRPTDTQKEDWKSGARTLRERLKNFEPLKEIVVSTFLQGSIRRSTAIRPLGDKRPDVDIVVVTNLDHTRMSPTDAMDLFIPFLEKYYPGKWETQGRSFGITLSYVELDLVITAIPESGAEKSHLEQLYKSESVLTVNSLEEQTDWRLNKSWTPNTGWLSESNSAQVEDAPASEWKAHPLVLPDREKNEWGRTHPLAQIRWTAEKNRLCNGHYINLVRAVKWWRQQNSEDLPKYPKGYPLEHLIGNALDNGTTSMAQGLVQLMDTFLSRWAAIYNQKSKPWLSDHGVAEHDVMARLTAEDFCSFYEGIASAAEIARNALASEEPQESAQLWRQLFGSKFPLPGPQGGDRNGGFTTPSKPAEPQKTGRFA

B1: E. cloacae Cap3, residues 17-180 of the annotated gene (protein)
chain: MSIKDVTFSSEGALYTIVISSSTIEQMVSECLKAGVNETGGILIGSYSEDSSTAMIVEATTRPADSLAGRTTFQRGVRGLRPLLHARWKTGLYYVGEWHFHPGGSPEPSGDDFRSMTSIAANSDYQCLEPVMIILGGDPAGSYSLSASVSPRGDAPIRLREVLI
For the protein B1, the “cleavage of the CD-NTase-GFP model substrate (SDS-PAGE, mass spectrometry)” value was “Both Cap3 proteins precisely cleaved the CD-NTase-GFP fusions at the CD-NTase C terminus”.
